Experimental data taken from the nanobody polyreactivity screen of Harvey et al. (2022).

Assay: yeast display, Sf9 membrane polyspecificity reagent, FACS + sequencing; frameworks hold sequencing errors
Summary of the method: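 Synthetic nanobody libraries on Saccharomyces cerevisiae BJ5465 were galactose-induced for 36–48 hours, stained 1 hour at 4 °C with 10% biotinylated, detergent-solubilized Sf9 membrane reagent and enriched on streptavidin microbeads. FACS then separated cells into low and high (top ~1%) gates by anti-HA (expression) and streptavidin (reagent binding) fluorescence. Genes were colony-PCR amplified, MiSeq 2 × 250 sequenced and CDR-length filtered. A clone's polyreactivity label is that of its gate of origin.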

| Sequence | polyreactivity (PSR sort gate) |
| --- | --- |
| QVQLVESGGGLVQAGGSLRLSCAASGRIIGYYAMGWYRQAPGKERELGAAITRGGSTNYADSVKGRFTISRDNAKNTVYLQMNSLKPEDTAVYYCAADLARYGKRYDYWGQGTQVTVSS | low polyreactivity |
| QVQLVESGGGLVQAGGSLRLSCAASGRIIPGNAMGWYRQAPGKERELVAAISWGGGSTYYADSVKGRFTISRDNAKNTVYLQMNSLKPEDTAVYYCNAGVSIGRSRRYDYWGQGTQVTVSS | low polyreactivity |
| QVQLVESGGGLVQAGGSLRLSCAASGRIIQYNAMGWYRQAPGKERELVAAISWRSRRTYYADSVKGRFTISRDNAKNTVYIQMNSLKPEDTAVYYCAATSRTSWYGYWGQGTQVTVSS | high polyreactivity |
| QVQLVESGGGLVQAGGSLRLSCAASGRIIRDNAMGWYRQAPGKERELVAAISRRGGSTYYADSVKGRFTISRDNAKNTVYLQMNSRKPEDTAVYYCNKTTHSRTFRYDYWGQGTQVTVSS | low polyreactivity |
| QVQLVESGGGLVQAGGSLRLSCAASGRIIRPYAMGWYRQAPGKERDFVATIRFTTGRTYYADSVKGRFTISRDNAKNTVYLQMNSLKPDDTAVYYCAADFAFVNYAKISYTTHDYWGQGTQVTVSS | high polyreactivity |
| QVQLVESGGGLVQAGGSLRLSCAASGRIIRQYAMGWYRKAPGKERELVAVISAGGARTYYADSVKGRFTISRDNAKNTVYLQMNSLKPEDTEVYYCAAELPTSQYDYYYWGQGTQVTVSS | high polyreactivity |
| QVQLVESGGGLVQAGGSLRLSCAASGRIISINAMVWYRQAPGKERELVAAINSGGSTHYADSVKGRFTISRDNAKNTVYLQMNSLKPEDTAVYYCAARKTVSYFRVRTFDYWGQGTQVTVSS | low polyreactivity |
| QVQLVESGGGLVQAGGSLRLSCAASGRIISRYAMGWYRQAPGKERELVAAISRRGGSTYYADSVKGRFTISRDNAKNTVYLQMNSLKPEDTAVYYCAAVRRKTAGGLEDYWGQGTQVTVSS | high polyreactivity |
| QVQLVESGGGLVQAGGSLRLSCAASGRIISSYAMVWYRQAPGKETELVAAISWDGGSTYYADSVKGRFTISRDNANNTVYLQMNSLKPEDTAVYYCATDATRPWYDYWGQGTQVTVSS | low polyreactivity |
| QVQLVESGGGLVQAGGSLRLSCAASGRIISYNAMGWYRQAPAKERELVAAISWGGGSTYYADSVKGRFTISRDTAKNTVYLQMNSLKPEDTAVSYCAKGWYRIKRNDYWGQGTQVTVSS | low polyreactivity |
| QVQLVESGGGLVQAGGSLRLSCAASGRIISYNAMGWYRQAPGKERELVAAISWGGGSTYYADSVKGRFTISRDNAKNTVYLQLNSLKPEDTAVYYCAKGWYRIKRNDYWGQGTQVTVSS | low polyreactivity |
| QVQLVESGGGLVQAGGSLRLSCAASGRIITEYVTGCYTQAPGKERELDAAAITRGGSTNYADSVKGRFTLSRDNAKNTVYLQKNSLIPEDTAVYHCNKDDWPVSRQLYTGKHDSWGQGTQVTVSS | low polyreactivity |
| QVQLVESGGGLVQAGGSLRLSCAASGRIITKYTMGWYRQAPGKERELFAAISRSDRTNYADSVKGRFTISRDNAKNTVYLQMNSLKPEDTAVYYCNARHSYWTGRRVTDDYDYRGQGTQVTVSS | high polyreactivity |
| QVQLVESGGGLVQAGGSLRLSCAASGRIITRYTMGWYRQAPGKERELVASITSSGSSTYYADSVKGRFTISRDNAKNTFYLQMNSLKPEDTAVYYCAARSRLRYLYDYWGQGTQVTVSS | high polyreactivity |
| QVQLVESGGGLVQAGGSLRLSCAASGRIIVDNTMGWYRQAPGQEREFVAVITSGGSTNYADSVKGRYTISRDNAKNTVYLQMNCLNPEDTAVYYCATEPGGYRFDDRPFQFGYWGQGTQVTVSS | low polyreactivity |
| QVQLVESGGGLVQAGGSLRLSCAASGRIIVNNAMGWYRQAPGKERELVAAITRRGGSTYYADSVKGRFTISRDNAKNTVYLQMNSLKPEDTAVYYCARSNQRTVYVASDYWGQGTQVTVSS | high polyreactivity |
| QVQLVESGGGLVQAGGSLRLSCAASGRIIWKNTMGWYRQAPGKERELVAAITYGGSTNYADSVKGRFTISRDNAKNTVYLQMNSLKPEDTAVYYCNAQISWDSGWGYSYHLDYWGQGTQVTVSS | low polyreactivity |
| QVQLVESGGGLVQAGGSLRLSCAASGRIIYKNAMGWYRQAPGKERELVAAITSSGGSTYYADSVKGRFTISRDNAKNTVYLQMNSLKPEDTAVYYCAAYAYGRFGKLNYWGQGTQVTVSS | low polyreactivity |
| QVQLVESGGGLVQAGGSLRLSCAASGRIIYPNAIGWYRQAPGKERELVAGITSRGGSTYYADSVKGRFTSSRDNAKNTVYLQMNSLKPEDTAVYYCAKRYYYFYPDYDYWGQGTQVTVSS | high polyreactivity |
| QVQLVESGGGLVQAGGSLRLSCAASGRIIYSNAMGWYRQAHGKERELVASISPNTGTTYYADSVKGRFTISLDNAKNTVYLQMNSLKPEDTAVYYCAARGGYYQDGLVTGEAEYGYWGQGTQVTVSS | low polyreactivity |
| QVQLVESGGGLVQAGGSLRLSCAASGRIKDNVMGWYRQAPGKERELVAAITRSAGRTYYADSVKGRFTISRDNAKNTVYLQMNSLKPEDTAVYYCAAQAERYGYEYWGQGTQVTVSS | low polyreactivity |
| QVQLVESGGGLVQAGGSLRLSCAASGRILAGYAMGWYRQAPGKERELVAVISVGTGSTYYADSVKGRFTISRDNAKNTVYLQMNSLKPEDTAVYYCAAVTAITSLRMGYWGQGTQVTVSS | low polyreactivity |

| Sequence | polyreactivity (PSR sort gate) |
| --- | --- |
| QVQLVESGGGLVQAGGSLRLSCAASGRILASNVMGWYRQAPGKEREFVASITYSGSSTYYADSVKGRFTISRDNAKNTVYLQMNSLKPEDTAVYYCATRYGYSDGDYWGQGTQVTVSS | low polyreactivity |
| QVQLVESGGGLVQAGGSLRLSCAASGRILFGYAMGWYRQAPGKERELVADITSTGSTNYADSVKGRFTISRDNAKNTVYLQMNSLKPEDTAVYYCNARRESYYQRYRVDYWGQGTQVTVSS | low polyreactivity |
| QVQLVESGGGLVQAGGSLRLSCAASGRILFHYAMGGSRPAPGKERELVAAITWRGGGTHYADSVKGRFTISRDNAKNTVYLQMNSLKPEDNAVYYCAADGWTYVYDYGYWGQGTQVTVSS | low polyreactivity |
| QVQLVESGGGLVQAGGSLRLSCAASGRILFYYGMGWYRQAPGKERELVAAISKRGGSTYYADSVKGRFTISRDNAKNTVYLQMNSLKPEDTAVYYCAAVQPAWGNGYWGQGTQVTVSS | high polyreactivity |
| QVQLVESGGGLVQAGGSLRLSCAASGRILGAYAMGWYRQPPGKERELVASISSGGRTYYADSVKGRFTISRDNAKNTVYLQMNSLKPEATAVYYCAKKKQLSVPASGYDYVYYWGQGTQVTVSS | high polyreactivity |
| QVQLVESGGGLVQAGGSLRLSCAASGRILGNNVMGWYRQAPGKERELVAAITSSGGRTYYADSVKGRFTISRDNAKNTVYLQMNSLKPEDTAVYYCAAERRYYGKFNYWGQGTQVTVSS | high polyreactivity |
| QVQLVESGGGLVQAGGSLRLSCAASGRILGQYVMGWYRQAPGKERELVASIRSGGVSTYYADSVKGRFTISRDNAKNTVYLQMNSLKPEDTAVYYCAKGSPGPRRYKFDYWGQGTQVTVSS | low polyreactivity |
| QVQLVESGGGLVQAGGSLRLSCAASGRILGYYAMGWSRQAPGKEREFVAAITTRGGNTYYADSVKGRFTISRDNAKNTVYLQMNSLKPEDTAVYYCAAESYTYRDAPTYFTRMYYWGQGTQVTVSS | high polyreactivity |
| QVQLVESGGGLVQAGGSLRLSCAASGRILHANAMGWYRQAPGKEREFVAAISVSGVSTYYADSVKGRFTISRDNAKNTVYLQMNSLKPEDTAVYYCNAETYSWYDYWGQGTQVTVSS | high polyreactivity |
| QVQLVESGGGLVQAGGSLRLSCAASGRILKWNARGWYRHAPGKERELVAAISQSGGSTYYADSVKGRFTISRDNAKNTVYLQMNSLKPEDTAVYYCAARRGSKFWGQGTQVTVSS | low polyreactivity |
| QVQLVESGGGLVQAGGSLRLSCAASGRILKYYDMGWYRQAPGKERELVAAISVSGTSTYYADSVKGRFTISRDNAKNTVYLQMNSLKPEDTAVYYCATATGRYSFDYWGQGTQVTVSS | low polyreactivity |
| QVQLVESGGGLVQAGGSLRLSCAASGRILKYYDMGWYRQAPGKERELVAAISVSGTSTYYADSVKGRFTISRDNAMNTVYLQMNSLKPEVTAVYYCATATGRYSFDYWGQGTQVTVSS | low polyreactivity |
| QVQLVESGGGLVQAGGSLRLSCAASGRILKYYDMGWYRQAPGKETELVAAISVSGTSTYYADSVKGRFTISRDNAKNTVYLQMNSLKPEDTAVYYCATATGRYSFDYWGKGTQVTVSS | low polyreactivity |
| QVQLVESGGGLVQAGGSLRLSCAASGRILNSYAMGWYRQAPGKEREFVAAIRRSRGSPYYADSVKGRFTISRDNAKNTVYLQMNSLKPEETAVYYCAAGRRYSGSYDYWGQGTQVTVSS | high polyreactivity |
| QVQLVESGGGLVQAGGSLRLSCAASGRILPSNAMGWYRQSPGKERELVATISSSGGDTYYADSVKGRFTISRDNAKNTVYLQMNSLKPEDTAGYYCAADSTWEGGYKYEYWGQGTQVTVSS | low polyreactivity |
| QVQLVESGGGLVQAGGSLRLSCAASGRILPYYAMGWYRQAPGKERELVAAISYSGGSTYYADSVKGRFTLSRDNGKNTFYLQMNSLKPEDTAVYYCNARPVKASYVGYNYWGQGTQVTVSS | high polyreactivity |
| QVQLVESGGGLVQAGGSLRLSCAASGRILQWYTMGWYRQAPGKERELVAAISGGGGRTYYADSVKGRFTNSRDIAKNTVYLQMNSLKPEDTAVYYCAKRGTGVYRVDYGYWGQGTQVTVSS | high polyreactivity |
| QVQLVESGGGLVQAGGSLRLSCAASGRILRFYAMGWYRQAPGKERELVATISRSGGSTYYAESVKGRVTISRDNAKNTVDLQMNSLKPEDTAVDYCNAKFKGVSYKMDYWGQGTQVTVSS | high polyreactivity |
| QVQLVESGGGLVQAGGSLRLSCAASGRILRGNAMGWYRQAPGKEREFFAAIRRSGGTSYYADSVKGRFTISRDNAKNTVYLQMNSLKPEDTAVYYCAATKYQTSGDRGYEHWGQGTQVTVSS | low polyreactivity |
| QVQLVESGGGLVQAGGSLRLSCAASGRILRQYAMGWYRQAPGKESELVAAISRSGASTFYADSVKGRFTISRDNAKNTVYLQMNSLKPEDTAVYYCAAEHHAFTWAAINYGSWGQGTQVTVSS | high polyreactivity |
| QVQLVESGGGLVQAGGSLRLSCAASGRILRSYAMGWYRPAPGKERELVAAISWRGGSTYYADSVKGRFTISRDNAKNTVYLQMNSLKPEDTAVYYCAKRSYYPARYDYWGQGTQVTVSS | high polyreactivity |
